Results on one molecule are retold here after patent EP4568683A2 (dated 2025).

Test [1] deals with T1, recombinant human PSMA protein (human, UniProt Q04609 44-750).
T1 construct: On Blue native PAGE the protein appeared to be a mixture of dimer and monomer; also called recombinant human PSMA (Acro Biosciences / Acro Biosystems; printed 'Aero')
As to the kind of experiment: ELISA, plates coated with 1 ug/mL recombinant human PSMA. On the technique in general: In an ELISA, binding on a coated surface is turned into a signal by an enzyme label.

Test [2] has as its target T2, human PSMA expressed on prostate cancer cell lines (22Rv1, C4-2B, PC3-PSMA) (human, UniProt Q04609 1-750).
T2 construct: Endogenous PSMA on 22Rv1 and C4-2B cells; PC3 cells were engineered to express PSMA; also called prostate specific membrane antigen; FOLH1
The experiment in a line: flow cytometry on PSMA-expressing 22Rv1 cells, PE anti-human IgG-Fc secondary, MFI. (In flow cytometry, cells or beads pass a laser one at a time.)

T2 sequence (Q04609 whole entry): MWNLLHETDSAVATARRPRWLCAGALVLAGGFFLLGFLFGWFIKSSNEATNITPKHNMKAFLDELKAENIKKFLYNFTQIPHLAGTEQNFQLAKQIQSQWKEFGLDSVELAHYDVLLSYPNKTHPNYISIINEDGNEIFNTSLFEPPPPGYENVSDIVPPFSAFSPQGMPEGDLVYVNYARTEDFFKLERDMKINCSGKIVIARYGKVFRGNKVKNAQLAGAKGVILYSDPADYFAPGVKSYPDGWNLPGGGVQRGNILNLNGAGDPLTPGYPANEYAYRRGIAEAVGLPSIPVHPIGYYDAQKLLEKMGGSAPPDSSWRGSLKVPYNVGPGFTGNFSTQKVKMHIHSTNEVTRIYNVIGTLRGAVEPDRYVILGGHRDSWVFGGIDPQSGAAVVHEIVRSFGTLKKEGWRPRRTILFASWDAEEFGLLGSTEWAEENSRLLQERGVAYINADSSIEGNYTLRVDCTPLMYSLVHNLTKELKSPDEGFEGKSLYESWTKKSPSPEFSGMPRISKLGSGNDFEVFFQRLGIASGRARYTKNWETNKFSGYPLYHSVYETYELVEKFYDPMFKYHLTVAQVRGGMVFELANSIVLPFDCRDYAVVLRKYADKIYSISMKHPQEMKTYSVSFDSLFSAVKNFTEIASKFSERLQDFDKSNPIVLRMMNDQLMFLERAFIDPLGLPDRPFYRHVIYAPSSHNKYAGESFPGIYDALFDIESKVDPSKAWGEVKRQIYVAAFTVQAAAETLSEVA
T1 sequence (Q04609 44-750 limits assumed): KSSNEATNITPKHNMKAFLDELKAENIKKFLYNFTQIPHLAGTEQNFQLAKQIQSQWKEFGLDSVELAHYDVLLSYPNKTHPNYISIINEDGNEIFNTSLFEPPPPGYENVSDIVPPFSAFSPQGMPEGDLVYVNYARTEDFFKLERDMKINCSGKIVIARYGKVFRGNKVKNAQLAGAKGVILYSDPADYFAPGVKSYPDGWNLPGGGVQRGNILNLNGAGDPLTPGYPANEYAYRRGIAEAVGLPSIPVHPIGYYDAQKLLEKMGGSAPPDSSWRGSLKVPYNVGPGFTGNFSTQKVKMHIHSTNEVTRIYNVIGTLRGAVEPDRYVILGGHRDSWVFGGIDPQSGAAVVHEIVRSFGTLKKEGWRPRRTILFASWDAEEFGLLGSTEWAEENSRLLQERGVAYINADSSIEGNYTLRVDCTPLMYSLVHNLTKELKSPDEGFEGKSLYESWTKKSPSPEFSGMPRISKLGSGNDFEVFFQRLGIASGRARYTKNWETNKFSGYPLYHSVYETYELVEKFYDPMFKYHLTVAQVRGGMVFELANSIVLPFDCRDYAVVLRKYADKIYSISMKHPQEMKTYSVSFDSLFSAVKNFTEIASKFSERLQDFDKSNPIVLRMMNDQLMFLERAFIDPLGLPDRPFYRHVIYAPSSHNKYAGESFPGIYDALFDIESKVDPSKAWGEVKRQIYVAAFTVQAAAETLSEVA

B1: benchmark antibody J591 (antibody, V domains shown)
VH: EVQLQQSGPELKKPGTSVRISCKTSGYTFTEYTIHWVKQSHGKSLEWIGNINPNNGGTTYNQKFEDKATLTVDKSSSTAYMELRSLTSEDSAVYYCAAGWNFDYWGQGTTLTVSS
VL: DIVMTQSHKFMSTSVGDRVSIICKASQDVGTAVDWYQQKPGQSPKLLIYWASTRHTGVPDRFTGSGSGTDFTLTITNVQSEDLADYFCQQYNSYPLTFGAGTMLDLK
notes: It was detected with anti-human IgG Fc secondary antibody; also called Benchmark (J591)
With B1, the binding result in test [1] and in test [2] was “binds” in each case.
